B1: CE115HA000 H96Q one-arm antibody (antibody, human IgG1, kappa, L234A L235A, N297A, name in Kabat numbering)
heavy: QVQLVESGGGVVQPGRSLRLSCAASGFTFSNAWMHWVRQAPGKGLEWVAQIKAKSNNYATYYAESVKGRFTISRDDSKNSLYLQMNSLKTEDTAVYYCRYVQYGAYYGVDAWGQGTTVTVSSASTKGPSVFPLAPSSKSTSGGTAALGCLVKDYFPEPVTVSWNSGALTSGVHTFPAVLQSSGLYSLSSVVTVPSSSLGTQTYICNVNHKPSNTKVDKKVEPKSCDKTHTCPPCPAPEAAGGPSVFLFPPKPKDTLMISRTPEVTCVVVDVSHEDPEVKFNWYVDGVEVHNAKTKPREEQYASTYRVVSVLTVLHQDWLNGKEYKCKVSNKALPAPIEKTISKAKGQPREPQVYTLPPSRCELTKNQVSLSCAVKGFYPSDIAVEWESNGQPENNYKTTPPVLDSDGSFFLVSKLTVDKSRWQQGNVFSCSVMHEALHNHYTQKSLSLSPDYKDDDDK
chain: EPKSSDKTHTCPPCPAPELLGGPSVFLFPPKPKDTLMISRTPEVTCVVVDVSHEDPEVKFNWYVDGVEVHNAKTKPREEQYNSTYRVVSVLTVLHQDWLNGKEYKCKVSNKALPAPIEKTISKAKGQPREPQVCTLPPSRDELTKNQVSLWCLVKGFYPSDIAVEWESNGQPENNYKTTPPVLDSDGSFFLYSKLTVDKSRWQQGNVFSCSVMHEALHNRYTQKSLSLSP
light: DIVMTQSPLSLPVTPGEPASISCRSSQSLVHSNRNTYLHWYQQKPGQAPRLLIYKVSNRFSGVPDRFSGSGSGTDFTLKISRVEAEDVGVYYCGQGTQVPYTFGQGTKLEIKRTVAAPSVFIFPPSDEQLKSGTASVVCLLNNFYPREAKVQWKVDNALQSGNSQESVTEQDSKDSTYSLSSTLTLSKADYEKHKVYACEVTHQGLSSPVTKSFNRGEC
B2: CE115HA000 H96S one-arm antibody (antibody, human IgG1, kappa, L234A L235A, N297A, name in Kabat numbering)
heavy: B1 heavy with Q102S
chain: B1 chain
light: B1 light
B3: CE115HA000 K52E one-arm antibody (antibody, human IgG1, kappa, L234A L235A, N297A, name in Kabat numbering)
heavy: B1 heavy with K52E, Q102H
chain: B1 chain
light: B1 light
B4: CE115HA000 H96Y one-arm antibody (antibody, human IgG1, kappa, L234A L235A, N297A, name in Kabat numbering)
heavy: B1 heavy with Q102Y
chain: B1 chain
light: B1 light
B5: CE115HA000 K52D one-arm antibody (antibody, human IgG1, kappa, L234A L235A, N297A, name in Kabat numbering)
heavy: B1 heavy with K52D, Q102H
chain: B1 chain
light: B1 light
B6: CE115HA000 I51E one-arm antibody (antibody, human IgG1, kappa, L234A L235A, N297A, name in Kabat numbering)
heavy: B1 heavy with I51E, Q102H
chain: B1 chain
light: B1 light
B7: CE115HA000 K43Q one-arm antibody (antibody, human IgG1, kappa, L234A L235A, N297A, name in Kabat numbering)
heavy: B1 heavy with K43Q, Q102H
chain: B1 chain
light: B1 light
B8: CE115HA000 K43E one-arm antibody (antibody, human IgG1, kappa, L234A L235A, N297A, name in Kabat numbering)
heavy: B1 heavy with K43E, Q102H
chain: B1 chain
light: B1 light
B9: CE115HA000 H96R one-arm antibody (antibody, human IgG1, kappa, L234A L235A, N297A, name in Kabat numbering)
heavy: B1 heavy with Q102R
chain: B1 chain
light: B1 light
B10: CE115HA000 I51D one-arm antibody (antibody, human IgG1, kappa, L234A L235A, N297A, name in Kabat numbering)
heavy: B1 heavy with I51D, Q102H
chain: B1 chain
light: B1 light

The record followed here is patent US20260049138A1 (Chugai, published 2026).

Positions count from the first letter of the chain named. In names and notes the source's numbering stands.

The target of the assay is T1, CD3ε homodimer protein (human, UniProt P07766 23-126, limits assumed, sulfo-tag or biotin label in the ECL assays; amine-coupled to the chip in SPR).
T1 construct: also called human CD3ε homodimer protein; CD3 (CD3ε)
T1 sequence (P07766 23-126 limits assumed): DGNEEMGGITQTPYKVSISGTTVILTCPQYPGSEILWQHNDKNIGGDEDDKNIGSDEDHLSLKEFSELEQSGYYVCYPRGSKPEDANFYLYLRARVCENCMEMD
Nature of the assay: SPR Biacore T200; CD3ε homodimer on CM4 chip.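 Further: Single-residue variant antibodies injected as analyte over CD3ε homodimer immobilized by amine coupling, run at 25 °C in HBS-EP+ buffer.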 In general terms: SPR reads the build-up and loss of mass on a sensor chip optically.
B1: the “ratio of amounts bound Z=Y/X (altered form / CE115HA000)” value was found to be 0.42.

As for B2, the “ratio of amounts bound Z=Y/X (altered form / CE115HA000)” value was 0.44.

For the molecule B3, the “ratio of amounts bound Z=Y/X (altered form / CE115HA000)” value amounted to 0.26.

In the case of B4, the “ratio of amounts bound Z=Y/X (altered form / CE115HA000)” value was 0.17.

For B5, the “ratio of amounts bound Z=Y/X (altered form / CE115HA000)” value was 0.25.

Take B6: the “ratio of amounts bound Z=Y/X (altered form / CE115HA000)” value is 0.55.

For B7, the “ratio of amounts bound Z=Y/X (altered form / CE115HA000)” value was 0.99.

As for B8, the “ratio of amounts bound Z=Y/X (altered form / CE115HA000)” value came to 0.9.

For the molecule B9, the “ratio of amounts bound Z=Y/X (altered form / CE115HA000)” value was 0.46.

Take B10: the “ratio of amounts bound Z=Y/X (altered form / CE115HA000)” value is 0.29.
